Here are results for one molecule from article PMC5433095 (mBio, 2017).

Assay [1] addresses T1, E1E2 glycoprotein complex on infectious cell culture-derived HCV particles (HCVcc) of strain JFH-1 (Hepatitis C virus genotype 2a, isolate …, UniProt Q99IB8).
T1 construct: source: concentrated HCVcc of infectious HCV strain JFH-1
Briefly: immunocapture of virus particles. The following applies: one partner purified.

In assay [2] the target is genotype 2a JFH1 E1E2 displayed on retrovirus-based HCV pseudoparticles (HCVpp) (Hepatitis C virus genotype 2a, isolate …, UniProt Q99IB8). Nature of the assay: immunocapture of virus particles. The following applies: one partner purified.

B1: MAb DAO5 IgG (antibody, V domains shown)
VH: EVQLQQSGPELVKPGASLKISCKTSGYTFTDFTFHWVKLSHGPSLEWIGTIKPSNGDTAYNQKFKGKATLSVDKSASTAHIEFRSLTSEDSAVYFCARFGGSYPYAMDYWGQGTSVIVSS
VL: DIVLTQSPATLSVTPGDRVSLSCRASQGIYNYVHWFQQKSHESPRLLIKYASQSISGIPSRFSGSGSGTDFTLSINSVESEDFGMYFCQQTNKWPLTFGAGTKLELK
On to B1, for which the binding result in assay [1] and in assay [2] was “binds” each time.
